Substrate: OC[C@H]1O[C@@](CO)(O[C@H]2O[C@H](CO)[C@@H](O)[C@H](O)[C@H]2O)[C@@H](O)[C@@H]1O
Test: initial sucrose consumption rate, reducing sugar (DNS) assay, Michaelis-Menten fit
Format: biochemical, Leuconostoc citreum
Settings: pH 6.5 phosphate 50 mM, 30°C, 1 mM CaCl2, total Km (hydrolysis plus transglycosylation)
Source text: initial sucrose consumption rate, reducing sugar (DNS) assay, Michaelis-Menten fit on IslA2

B1: IslA2 (Leuconostoc citreum) (protein)
chain: DVNQPLLAQENFSGNKTEPVPDKSNKNESVKDSKVATSDELAKDSKVATSDELAKDSKVATSDELAKDSKVATSDELVKDSKVATSDELAKDSKVATSDELAKDSKVATSDELAKDSKVATSDELAKDSKVATSDELAKDSKAPTNDVSVRAEKKSSLIDSPELNVKMSEMTSVPNLISDENSKNLVNSNELINGLSKRSLEIAHQAGIDVSRLNDIQKAALNKIKLVNEDGNKYVLDNTGSDYTKNTIIDKNNPDDTTKTTHITFANLDDAIKLAQKPDPKTTIPVFNASQINNLPASIFKDAQTNKVEKMDVWDSWALQDSKTGEVYNYHGKQVVFALMGAPLVQGDTHIYMLYNNYNNAKLDGWVNAGPVFGYNAKPESQEWSGSAVVNSDDSIQLFYTRVADDWKQALATVNIKITNSENSLGIQSLQNDHILFEGDGYFYSRKDQLKPQADMFTLRDPKLIELDDGERYLTFEANTGIYDEASDQQTVNLNNYGGGLTYDVARMLGVVNNSNRALYSSTANGAIGLLKLKGDYFNPILDRLYKPLITAVGVTDEIERANIVPFNGKYYLFTDSRFNRSAADNSPMSMAPDGAMMMGFVSDSLFGDYKPLNGNGIVLVTNNSFTSRTNTYSWYTVPVKGRPDLMLVTSYMTNRGLASGTDQYSTFAPSFLLKIDGDQTHVLNTVTEQGDWVWGDDDHSIVELLALNTEDAYLTNNQKNINYSPDWSNIDGYGYPIVTNIKDVDLTFYISGILSPDSLFKNAPGRHQGARIIGSTSQYNTEKVSAIKEYTDDLNTIWYLVNLAGNNFWIKGSSLVTVPMTDSTFRNAYIVKDSDMYLDAPQGETNAKYYQSSNSYNDAYVIVGGEYKDAHGITWNLIKLNDKILWINKNSLAISFSRDLN
notes: C-terminal truncation, last 551 residues deleted; variable region, catalytic domain and transition region kept; 102 kDa plus 16 kDa N-terminal thioredoxin fusion, His tag; E. coli TOP10, pBAD/Thio TOPO, Ni-NTA
Question: B1 was tested. Which Km did it give?
Answer: 24 mM

Question: What about the kcat of the same protein?
Answer: 28.2 s⁻¹

Question: And the kcat/Km?
Answer: 1170 M⁻¹ s⁻¹

From article PMC2270844, “Functional role of the additional domains in inulosucrase (IslA) from Leuconostoc citreum CW28” (BMC Biochemistry, 2008)
